Test results as given in paper PMC4490372, “Architecture of TFIIIC and its role in RNA polymerase III pre-initiation complex assembly” (Nature Communications, 2015).

Key:
Assay in all cases: pull-down; 15 μg GST-τ138 (641–693) on Glutathione Sepharose 4B; 900 nM wild-type or mutant τ131; 50 mM Tris pH 7.5, 150 mM NaCl, 2 mM DTT, 0.1% Tween20; 4 °C, 4 h
Details in all cases: both partners purified
τ131 (123–566) E498K = target: T1, τ131 (123–566) E498K (S. cerevisiae, UniProt P33339 123-566, E498K)
T1 construct: source: E. coli, purified by the same method as the wild type; not shown: His6, N-terminal, cleaved
T1 sequence (looked up): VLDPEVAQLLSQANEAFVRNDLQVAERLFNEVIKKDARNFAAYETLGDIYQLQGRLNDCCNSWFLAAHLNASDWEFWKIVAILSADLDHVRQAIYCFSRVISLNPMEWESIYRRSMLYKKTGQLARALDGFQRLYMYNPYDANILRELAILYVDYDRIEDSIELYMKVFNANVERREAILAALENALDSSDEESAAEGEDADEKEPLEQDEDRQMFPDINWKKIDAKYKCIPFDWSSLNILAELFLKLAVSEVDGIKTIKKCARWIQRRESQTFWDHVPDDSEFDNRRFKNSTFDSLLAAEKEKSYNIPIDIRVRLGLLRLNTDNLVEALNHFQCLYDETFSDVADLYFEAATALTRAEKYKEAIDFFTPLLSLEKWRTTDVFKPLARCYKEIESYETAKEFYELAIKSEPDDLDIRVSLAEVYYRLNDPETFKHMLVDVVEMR

τ131 (123–566) E472K = target: T2, τ131 (123–566) E472K (S. cerevisiae, UniProt P33339 123-566, E472K)
T2 construct: source: E. coli, purified by the same method as the wild type; not shown: His6, N-terminal, cleaved
T2 sequence (looked up): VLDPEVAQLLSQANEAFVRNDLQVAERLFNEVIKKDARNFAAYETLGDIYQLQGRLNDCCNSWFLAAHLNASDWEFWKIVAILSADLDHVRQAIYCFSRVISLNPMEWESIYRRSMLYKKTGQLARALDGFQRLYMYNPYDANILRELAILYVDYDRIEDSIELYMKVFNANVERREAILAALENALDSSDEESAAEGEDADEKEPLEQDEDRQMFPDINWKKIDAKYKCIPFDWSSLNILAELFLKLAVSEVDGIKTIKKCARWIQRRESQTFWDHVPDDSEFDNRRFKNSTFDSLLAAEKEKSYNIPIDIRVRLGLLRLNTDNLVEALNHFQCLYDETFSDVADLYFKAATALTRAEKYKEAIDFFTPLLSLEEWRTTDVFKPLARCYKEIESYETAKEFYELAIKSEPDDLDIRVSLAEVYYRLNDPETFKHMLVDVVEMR

τ131 (123–566) E497K = target: T3, τ131 (123–566) E497K (S. cerevisiae, UniProt P33339 123-566, E497K)
T3 construct: source: E. coli, purified by the same method as the wild type; not shown: His6, N-terminal, cleaved
T3 sequence (looked up): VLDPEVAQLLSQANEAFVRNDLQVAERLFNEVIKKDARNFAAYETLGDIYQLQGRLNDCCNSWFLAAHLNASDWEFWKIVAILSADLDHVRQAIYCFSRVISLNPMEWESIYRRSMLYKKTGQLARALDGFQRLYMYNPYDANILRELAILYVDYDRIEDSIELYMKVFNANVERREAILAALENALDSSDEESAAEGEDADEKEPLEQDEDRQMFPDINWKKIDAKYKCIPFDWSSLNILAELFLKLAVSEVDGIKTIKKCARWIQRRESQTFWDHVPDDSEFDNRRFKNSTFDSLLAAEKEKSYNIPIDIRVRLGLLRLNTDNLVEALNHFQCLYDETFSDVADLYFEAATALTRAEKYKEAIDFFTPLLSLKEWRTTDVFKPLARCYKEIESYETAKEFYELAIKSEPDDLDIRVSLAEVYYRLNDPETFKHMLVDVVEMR

Measured: binding result

B1: GST-τ138 (641–693) (domain or fragment, S. cerevisiae, UniProt P34111 641-693, looked up)
chain: SKKATFTDVIHDTEIYFFDQTEKNRFHRGKKSVERIRKFQNRQKNAKIKASDD
notes: also called GST-tagged τ138; source: E. coli BL21 (DE3) Gold, purified (GST column, S200 SEC)
binds: all assays above
